# Residue numbers refer to the chain shown, from its start.
# Columns and labels:
# Test in all cases: cAMP activity assay (pCRE β-galactosidase reporter), transfected HEK293T cells
# Assay type in all cases: cell-based
# RXFP1 S47L48-AA = target: T1, RXFP1 S47L48-AA (Homo sapiens, UniProt Q9HBX9, L70A/S69A); conditions: construct S47L48-AA, ±s.e.m.
# T1 construct: expressed in transfected cells; host or cells: HEK293T
# T1 sequence (Q9HBX9 23-757 S69A/L70A limits assumed): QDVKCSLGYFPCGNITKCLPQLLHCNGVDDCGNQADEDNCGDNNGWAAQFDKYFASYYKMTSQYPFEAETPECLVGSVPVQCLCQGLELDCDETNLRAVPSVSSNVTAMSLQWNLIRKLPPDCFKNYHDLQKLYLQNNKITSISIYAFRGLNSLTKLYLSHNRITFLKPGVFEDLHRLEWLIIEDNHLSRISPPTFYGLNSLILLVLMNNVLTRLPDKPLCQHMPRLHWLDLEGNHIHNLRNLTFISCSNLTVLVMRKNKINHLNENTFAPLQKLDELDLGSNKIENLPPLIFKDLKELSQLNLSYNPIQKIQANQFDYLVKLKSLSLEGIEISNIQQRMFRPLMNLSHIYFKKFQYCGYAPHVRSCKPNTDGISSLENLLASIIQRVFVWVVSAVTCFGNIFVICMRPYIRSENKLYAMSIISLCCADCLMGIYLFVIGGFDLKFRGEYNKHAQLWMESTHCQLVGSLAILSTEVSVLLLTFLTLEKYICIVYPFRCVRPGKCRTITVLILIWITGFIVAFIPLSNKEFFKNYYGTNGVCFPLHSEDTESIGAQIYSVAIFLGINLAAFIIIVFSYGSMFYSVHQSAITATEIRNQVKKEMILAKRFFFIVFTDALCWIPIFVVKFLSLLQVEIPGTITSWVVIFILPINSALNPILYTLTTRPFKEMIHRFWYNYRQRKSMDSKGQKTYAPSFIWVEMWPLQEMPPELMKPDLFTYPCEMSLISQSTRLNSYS
# Summary of the method: (§1)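 HEK293T cells transfected with mutant RXFP1 and pCRE β-galactosidase reporter, stimulated with H2 relaxin in minimal media/1% DMSO. β-Galactosidase read with chlorophenol red-β-D-galactopyranoside at 570 nm; responses pooled from ≥3 triplicate experiments as % of 5 μM forskolin maximum.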
# RXFP1 D51A = target: T2, RXFP1 D51A (Homo sapiens, UniProt Q9HBX9, D51A/D73A); conditions: construct D51A, ±s.e.m.
# T2 construct: cells expressing full-length RXFP1 and mutants; expressed in transfected cells; host or cells: HEK293T
# T2 sequence (Q9HBX9 23-757 D51A/D73A limits assumed): T1 sequence (Q9HBX9 23-757 S69A/L70A limits assumed) with D29A, A47S, A48L, D51A
# Summary of the method: as §1
# RXFP1 K52A = target: T3, RXFP1 K52A (Homo sapiens, UniProt Q9HBX9, K74A); conditions: construct K52A, ±s.e.m.
# T3 construct: cells expressing full-length RXFP1 and mutants; expressed in transfected cells; host or cells: HEK293T
# T3 sequence (Q9HBX9 23-757 K74A limits assumed): T1 sequence (Q9HBX9 23-757 S69A/L70A limits assumed) with A47S, A48L, K52A
# Summary of the method: as §1
# [1] = percentage of maximum response to 5 μM Forskolin
substance,measurement,setting,value
H2 relaxin: two-chain 6-kDa peptide hormone structurally related to insulin; recombinant human gene-2 H2 relaxin provided by Corthera,H2 relaxin pEC50,RXFP1 S47L48-AA; cAMP reporter,11.07±0.17 (3)
same,H2 relaxin Emax,RXFP1 S47L48-AA; [1],120.9±10.9 (3) %
same,H2 relaxin pEC50,RXFP1 D51A; cAMP reporter,11.01±0.56 (3)
same,H2 relaxin Emax,RXFP1 D51A; [1],96.5±4.0 (3) %
same,H2 relaxin pEC50,RXFP1 K52A; cAMP reporter,11.06±0.11
same,H2 relaxin Emax,RXFP1 K52A; [1],154.63±33.73 (5) %
